Data: paper PMC5004176, “The antifungal plant defensin AtPDF2.3 from Arabidopsis thaliana blocks potassium channels” (Scientific Reports, 2016)
Read-outs that look alike come from different tables or passages of the source. Ends that are not written are not given here.

Columns and labels:
Kv1.6 channels = assay: Two-electrode voltage-clamp on Kv1.6 expressed in X. laevis oocytes; settings: for IC50: read-out: IC50 for Kv1.6, two-electrode voltage-clamp, X. laevis oocytes, concentration-response curve fitted with Hill equation, mean ± standard error, n ≥ 3
Experimental: (§1) For the expression of the voltage-gated potassium channels (rKv1.1, rKv1.2, hKv1.3, rKv1.4, rKv1.5, rKv1.6, Shaker IR, hKv3.1, rKv4.3, and hERG) in Xenopus laevis oocytes, the linearized plasmids were transcribed using the T7 or SP6 mMESSAGE-mMACHINE transcription kit (Ambion). The harvesting of stage V–VI oocytes from an anaesthetized female X. laevis frog was previously described[59]. Oocytes were injected with 50 nL of cRNA at a concentration of 1 ng/nL using a micro-injector (Drummond Scientific, USA). The oocytes were incubated in a solution containing (in mM): NaCl, 96; KCl, 2; CaCl2, 1.8; MgCl2, 2 and HEPES, 5 (pH 7.4), supplemented with 50 mg/L gentamycin sulfate.
(§2) Two-electrode voltage-clamp recordings were performed at room temperature (18–22 °C) using a Geneclamp 500 amplifier (Molecular Devices, USA) controlled by a pClamp data acquisition system (Axon Instruments, USA). Whole cell currents from oocytes were recorded 1–4 days after injection. Bath solution composition was ND96 (in mM): NaCl, 96; KCl, 2; CaCl2, 1.8; MgCl2, 2 and HEPES, 5 (pH 7.4) or HK (in mM): NaCl, 2; KCl, 96; CaCl2, 1.8; MgCl2, 2 and HEPES, 5 (pH 7.4). Voltage and current electrodes were filled with 3 M KCl. Resistances of both electrodes were kept between 0.7 and 1.5 MΩ. The elicited currents were filtered at 0.5 kHz and sampled at 2 kHz (for potassium currents) or filtered at 2 kHz and sampled at 20 kHz (for sodium currents) using a four-pole low-pass Bessel filter. Leak subtraction was performed using a -P/4 protocol. Kv1.1–Kv1.6 and Shaker currents were evoked by 250 ms depolarizations to 0 mV followed by a 250 ms pulse to −50 mV, from a holding potential of −90 mV. Current traces of hERG channels were elicited by applying a +40 mV prepulse for 2 s followed by a step to −120 mV for 2 s. […] In order to investigate the current–voltage relationship, current traces were evoked by 10 mV depolarization steps from a holding potential of −90 mV. To assess the concentration dependency of the toxin induced inhibitory effects, a concentration–response curve was constructed, in which the percentage of current inhibition was plotted as a function of toxin concentration. Data were fitted with the Hill equation: y = 100/[1 + (IC50/[toxin])^h], were y is the amplitude of the toxin-induced effect, IC50 is the toxin concentration at half-maximal efficacy, [toxin] is the toxin concentration, and h is the Hill coefficient. GV curves were calculated from IV relationships as follows: gK = IK/(Em−EK) with EK = (RT/zF)ln[K #0]o/[K #0]i. In these equations gK represents the conductance, IK the potassium current, Em the membrane potential, EK the reversal potential, R the gas constant (8.31 J/K mol), T the temperature, z the charge of the ion (for K+ ions: z = 1), F the Faraday’s constant (96.500 C/mol), [K #0]o and [K #0]i respectively are the extracellular and intracellular K+ ion concentrations. The values of IK or gK were plotted as function of voltage and fitted using the Boltzmann equation: gK/gmax = [1 + exp(Vg−V)/k]−1, were gmax represents maximal gK, Vg is the voltage corresponding to half-maximal conductance, and k is the slope factor. Comparison of two sample means was made using a paired Student’s t test (P < 0.05). All data represent at least three independent experiments (n ≥ 3) and are presented as mean ± standard error.

Kv1.2 channels = assay: Two-electrode voltage-clamp on Kv1.2 expressed in X. laevis oocytes; settings: for IC50: read-out: IC50 for Kv1.2, two-electrode voltage-clamp, X. laevis oocytes, concentration-response curve fitted with Hill equation, mean ± standard error, n ≥ 3
Experimental: as §1, §2

[1] = target: voltage-gated potassium channel rKv1.6 (rat (from the prefix in rKv1.6)) (UniProt P17659)
voltage-gated potassium channel rKv1.6 (rat (from the prefix in rKv1.6)), sequence (P17659 whole entry): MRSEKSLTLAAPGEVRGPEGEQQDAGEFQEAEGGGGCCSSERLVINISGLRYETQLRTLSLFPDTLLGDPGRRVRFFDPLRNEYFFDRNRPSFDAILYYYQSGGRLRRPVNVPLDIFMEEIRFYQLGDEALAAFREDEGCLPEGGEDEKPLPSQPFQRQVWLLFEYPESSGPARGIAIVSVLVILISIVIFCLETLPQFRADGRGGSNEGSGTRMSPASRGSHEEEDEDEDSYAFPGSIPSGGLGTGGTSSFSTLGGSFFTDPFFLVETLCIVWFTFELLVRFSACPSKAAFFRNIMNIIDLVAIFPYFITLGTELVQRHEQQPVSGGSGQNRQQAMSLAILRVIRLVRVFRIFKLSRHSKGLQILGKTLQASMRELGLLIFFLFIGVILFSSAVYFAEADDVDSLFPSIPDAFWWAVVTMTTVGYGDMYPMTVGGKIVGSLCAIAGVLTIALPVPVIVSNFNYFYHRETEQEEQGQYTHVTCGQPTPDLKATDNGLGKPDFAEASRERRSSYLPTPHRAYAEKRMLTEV

[2] = target: voltage-gated potassium channel rKv1.2 (rat (from the prefix in rKv1.2)) (UniProt P63142)
voltage-gated potassium channel rKv1.2 (rat (from the prefix in rKv1.2)), sequence (P63142 whole entry): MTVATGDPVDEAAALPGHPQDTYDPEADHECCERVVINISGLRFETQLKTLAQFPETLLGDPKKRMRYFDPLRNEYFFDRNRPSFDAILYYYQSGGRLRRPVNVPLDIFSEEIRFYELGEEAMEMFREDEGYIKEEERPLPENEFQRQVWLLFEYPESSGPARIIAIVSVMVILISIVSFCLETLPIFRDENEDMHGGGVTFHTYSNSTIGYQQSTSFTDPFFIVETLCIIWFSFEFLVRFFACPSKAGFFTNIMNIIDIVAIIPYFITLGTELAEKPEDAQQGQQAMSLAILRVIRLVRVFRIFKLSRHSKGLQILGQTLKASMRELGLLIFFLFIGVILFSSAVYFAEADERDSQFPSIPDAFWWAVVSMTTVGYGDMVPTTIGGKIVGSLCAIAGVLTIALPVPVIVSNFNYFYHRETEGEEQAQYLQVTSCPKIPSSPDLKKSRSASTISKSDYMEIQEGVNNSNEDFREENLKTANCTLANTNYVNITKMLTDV

[3] = target: voltage-gated potassium channel rKv1.6 (rat (from the prefix in rKv1.6)) (UniProt P17659); remark: listed apart in the source
[4] = target: voltage-gated potassium channel rKv1.2 (rat (from the prefix in rKv1.2)) (UniProt P63142); remark: listed apart in the source

| Molecule | IC50 (Kv1.6 channels) [nM] | IC50 (Kv1.2 channels) [nM] | IC50 of inhibition of Kv1.6 potassium current, two-electrode voltage clamp on X. laevis oocytes, concentration-response curve [3] [nM] | IC50 of inhibition of Kv1.2 potassium current, two-electrode voltage clamp on X. laevis oocytes, concentration-response curve [4] [nM] | also measured |
| --- | --- | --- | --- | --- | --- |
| AtPDF2.3 [K33A][G36N]: rAtPDF2.3 variant containing only Asparagine36 (CXN toxin signature) (RTCESKSHRFKGPCVSTHNCANVCHNEGFGGGACRNFRRRCYCTRHC; ends and bridges not checked; cysteine pairing not given here) | 366 ± 114 | 1380 ± 133 | – | – | – |
| rAtPDF2.3[G36N]: rAtPDF2.3 variant with both Lysine33 and Asparagine36 (KCXN toxin signature) (RTCESKSHRFKGPCVSTHNCANVCHNEGFGGGKCRNFRRRCYCTRHC; ends and bridges not checked; cysteine pairing not given here) | 138 ± 38 | 611 ± 91 | – | – | fold decrease of Kv1.6 IC50 as compared to rAtPDF2.3 (Kv1.6 channels; ratio of IC50 values): 7.1 fold; fold decrease of Kv1.2 IC50 as compared to rAtPDF2.3 (Kv1.2 channels; ratio of IC50 values): 2.1 fold |
| rAtPDF2.3[K33A]: rAtPDF2.3 variant with neither Lysine33 nor Asparagine36, devoid of the toxin signature (RTCESKSHRFKGPCVSTHNCANVCHNEGFGGGACRGFRRRCYCTRHC; ends and bridges not checked; cysteine pairing not given here) | 3500 ± 235 | 2040 ± 383 | – | – | – |
| recombinant Arabidopsis thaliana plant defensin AtPDF2.3 (from UniProt Q9ZUL7 31-77) (peptide) | – | – | – | – | IC50 of inhibition of Kv1.6 potassium current, two-electrode voltage clamp on X. laevis oocytes, concentration-response curve [1]: 978 nM; IC50 of inhibition of Kv1.2 potassium current, two-electrode voltage clamp on X. laevis oocytes, concentration-response curve [2]: 1300 nM; inhibition of the Kv1.2 potassium current by 2 μM rAtPDF2.3 in HK solution [2]: 66%; inhibition of the Kv1.2 potassium current by 2 μM rAtPDF2.3 in ND96 solution (data not shown) [2]: 59% |
| RTCESKSHRFKGPCVSTHNCANVCHNEGFGGGACRGFRRRCYCTRHC (not fully specified; cysteine pairing not given here) [rAtPDF2.3[K33A]] | – | – | 3500 | 2040 | – |
| RTCESKSHRFKGPCVSTHNCANVCHNEGFGGGACRNFRRRCYCTRHC (not fully specified; cysteine pairing not given here) [rAtPDF2.3[K33A][G36N]] | – | – | 366 | 1380 | – |
| RTCESKSHRFKGPCVSTHNCANVCHNEGFGGGKCRNFRRRCYCTRHC (not fully specified; cysteine pairing not given here) [rAtPDF2.3[G36N]] | – | – | 138 | 611 | – |
